For 6 molecules, IC50 results are on record in patent US20140087995A1 (published 2014).

Numbered stars: 1 amine (or outer) side, 2 acyl side, 3 side chain; on linkers, the order of the positions; unused ones are H or OH. Bridge positions count the residues as written; N and C are the ends. Side chains are listed from the residue outwards. Ends that are not written are not given here. * marks the point of attachment. C20 diacid = O=C(O)CCCCCCCCCCCCCCCCCCC(=O)*; γGlu = O=C(O)[C@H](CCC(=O)[*:2])N[*:1]

The chains are these.
T1: human amylin receptor (amylin 3(a) receptor: human calcitonin receptor with RAMP-3) (human, UniProt P30988 25-474; O60896 24-148)
T1 construct: whole, on cells; also called hAmylin-R; hAmylinR
T1 sequence (looked up) 1: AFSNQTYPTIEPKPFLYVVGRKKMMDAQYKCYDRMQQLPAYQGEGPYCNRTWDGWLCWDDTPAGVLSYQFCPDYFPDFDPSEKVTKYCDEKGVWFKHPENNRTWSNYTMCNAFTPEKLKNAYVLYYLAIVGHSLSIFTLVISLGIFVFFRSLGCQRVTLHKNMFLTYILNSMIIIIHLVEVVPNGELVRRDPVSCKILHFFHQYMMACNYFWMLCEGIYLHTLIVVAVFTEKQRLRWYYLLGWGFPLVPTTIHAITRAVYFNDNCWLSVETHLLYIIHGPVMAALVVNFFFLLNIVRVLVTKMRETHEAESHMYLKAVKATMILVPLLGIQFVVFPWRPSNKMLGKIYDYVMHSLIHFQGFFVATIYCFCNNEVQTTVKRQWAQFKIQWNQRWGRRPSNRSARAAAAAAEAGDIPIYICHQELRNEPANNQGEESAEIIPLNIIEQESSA
T1 sequence (looked up) 2: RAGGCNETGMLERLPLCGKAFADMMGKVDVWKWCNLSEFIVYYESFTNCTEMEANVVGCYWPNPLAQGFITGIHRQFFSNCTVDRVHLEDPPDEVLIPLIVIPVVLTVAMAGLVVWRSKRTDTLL

B1: N^ε1-[(4S)-4-carboxy-4-(19-carboxynonadecanoylamino)butanoyl]-[His14,Arg17,Pro21,Pro27]-h-amylin (peptide)
peptide: K([γGlu-C20 diacid])CNTATCATQRLAHFLRHSSPNFGAIPSSTNVGSNTY-NH2
modifications: disulfide 2-7; N-terminus assumed
SMILES: CC[C@H](C)[C@H](NC(=O)[C@H](C)NC(=O)CNC(=O)[C@H](Cc1ccccc1)NC(=O)[C@H](CC(N)=O)NC(=O)[C@@H]1CCCN1C(=O)[C@H](CO)NC(=O)[C@H](CO)NC(=O)[C@H](Cc1c[nH]cn1)NC(=O)[C@H](CCCNC(=N)N)NC(=O)[C@H](CC(C)C)NC(=O)[C@H](Cc1ccccc1)NC(=O)[C@H](Cc1c[nH]cn1)NC(=O)[C@H](C)NC(=O)[C@H](CC(C)C)NC(=O)[C@H](CCCNC(=N)N)NC(=O)[C@H](CCC(N)=O)NC(=O)[C@@H](NC(=O)[C@H](C)NC(=O)[C@@H]1CSSC[C@H](NC(=O)[C@@H](N)CCCCNC(=O)CC[C@H](NC(=O)CCCCCCCCCCCCCCCCCCC(=O)O)C(=O)O)C(=O)N[C@@H](CC(N)=O)C(=O)N[C@@H]([C@@H](C)O)C(=O)N[C@@H](C)C(=O)N[C@@H]([C@@H](C)O)C(=O)N1)[C@@H](C)O)C(=O)N1CCC[C@H]1C(=O)N[C@@H](CO)C(=O)N[C@@H](CO)C(=O)N[C@H](C(=O)N[C@@H](CC(N)=O)C(=O)N[C@H](C(=O)NCC(=O)N[C@@H](CO)C(=O)N[C@@H](CC(N)=O)C(=O)N[C@H](C(=O)N[C@@H](Cc1ccc(O)cc1)C(N)=O)[C@@H](C)O)C(C)C)[C@@H](C)O
notes: also called 70; compound 70
B2: N^ε1-[(4S)-4-carboxy-4-[[(4S)-4-carboxy-4-(19-carboxynonadecanoylamino)butanoyl]amino]butanoyl]-[Asp14,Arg17,Pro21,Pro27,Arg35]-h-amylin (peptide)
peptide: K([γGlu-γGlu-C20 diacid])CNTATCATQRLADFLRHSSPNFGAIPSSTNVGSRTY-NH2
modifications: disulfide 2-7; N-terminus assumed
SMILES: CC[C@H](C)[C@H](NC(=O)[C@H](C)NC(=O)CNC(=O)[C@H](Cc1ccccc1)NC(=O)[C@H](CC(N)=O)NC(=O)[C@@H]1CCCN1C(=O)[C@H](CO)NC(=O)[C@H](CO)NC(=O)[C@H](Cc1c[nH]cn1)NC(=O)[C@H](CCCNC(=N)N)NC(=O)[C@H](CC(C)C)NC(=O)[C@H](Cc1ccccc1)NC(=O)[C@H](CC(=O)O)NC(=O)[C@H](C)NC(=O)[C@H](CC(C)C)NC(=O)[C@H](CCCNC(=N)N)NC(=O)[C@H](CCC(N)=O)NC(=O)[C@@H](NC(=O)[C@H](C)NC(=O)[C@@H]1CSSC[C@H](NC(=O)[C@@H](N)CCCCNC(=O)CC[C@H](NC(=O)CC[C@H](NC(=O)CCCCCCCCCCCCCCCCCCC(=O)O)C(=O)O)C(=O)O)C(=O)N[C@@H](CC(N)=O)C(=O)N[C@@H]([C@@H](C)O)C(=O)N[C@@H](C)C(=O)N[C@@H]([C@@H](C)O)C(=O)N1)[C@@H](C)O)C(=O)N1CCC[C@H]1C(=O)N[C@@H](CO)C(=O)N[C@@H](CO)C(=O)N[C@H](C(=O)N[C@@H](CC(N)=O)C(=O)N[C@H](C(=O)NCC(=O)N[C@@H](CO)C(=O)N[C@@H](CCCNC(=N)N)C(=O)N[C@H](C(=O)N[C@@H](Cc1ccc(O)cc1)C(N)=O)[C@@H](C)O)C(C)C)[C@@H](C)O
notes: also called 52; compound 52
B3: N^ε1-[(4S)-4-carboxy-4-[[(4S)-4-carboxy-4-(19-carboxynonadecanoylamino)butanoyl]amino]butanoyl]-[Arg17,Pro21,Pro27,His34]-h-amylin (peptide)
peptide: K([γGlu-γGlu-C20 diacid])CNTATCATQRLANFLRHSSPNFGAIPSSTNVGHNTY-NH2
modifications: disulfide 2-7; N-terminus assumed
SMILES: CC[C@H](C)[C@H](NC(=O)[C@H](C)NC(=O)CNC(=O)[C@H](Cc1ccccc1)NC(=O)[C@H](CC(N)=O)NC(=O)[C@@H]1CCCN1C(=O)[C@H](CO)NC(=O)[C@H](CO)NC(=O)[C@H](Cc1c[nH]cn1)NC(=O)[C@H](CCCNC(=N)N)NC(=O)[C@H](CC(C)C)NC(=O)[C@H](Cc1ccccc1)NC(=O)[C@H](CC(N)=O)NC(=O)[C@H](C)NC(=O)[C@H](CC(C)C)NC(=O)[C@H](CCCNC(=N)N)NC(=O)[C@H](CCC(N)=O)NC(=O)[C@@H](NC(=O)[C@H](C)NC(=O)[C@@H]1CSSC[C@H](NC(=O)[C@@H](N)CCCCNC(=O)CC[C@H](NC(=O)CC[C@H](NC(=O)CCCCCCCCCCCCCCCCCCC(=O)O)C(=O)O)C(=O)O)C(=O)N[C@@H](CC(N)=O)C(=O)N[C@@H]([C@@H](C)O)C(=O)N[C@@H](C)C(=O)N[C@@H]([C@@H](C)O)C(=O)N1)[C@@H](C)O)C(=O)N1CCC[C@H]1C(=O)N[C@@H](CO)C(=O)N[C@@H](CO)C(=O)N[C@H](C(=O)N[C@@H](CC(N)=O)C(=O)N[C@H](C(=O)NCC(=O)N[C@@H](Cc1c[nH]cn1)C(=O)N[C@@H](CC(N)=O)C(=O)N[C@H](C(=O)N[C@@H](Cc1ccc(O)cc1)C(N)=O)[C@@H](C)O)C(C)C)[C@@H](C)O
notes: also called 86; compound 86
B4: N^ε1-[(4S)-4-carboxy-4-[[(4S)-4-carboxy-4-(19-carboxynonadecanoylamino)butanoyl]amino]butanoyl]-[Asp14,Arg17,Pro21,Pro27,Asp35]-h-amylin (peptide)
peptide: K([γGlu-γGlu-C20 diacid])CNTATCATQRLADFLRHSSPNFGAIPSSTNVGSDTY-NH2
modifications: disulfide 2-7; N-terminus assumed
SMILES: CC[C@H](C)[C@H](NC(=O)[C@H](C)NC(=O)CNC(=O)[C@H](Cc1ccccc1)NC(=O)[C@H](CC(N)=O)NC(=O)[C@@H]1CCCN1C(=O)[C@H](CO)NC(=O)[C@H](CO)NC(=O)[C@H](Cc1c[nH]cn1)NC(=O)[C@H](CCCNC(=N)N)NC(=O)[C@H](CC(C)C)NC(=O)[C@H](Cc1ccccc1)NC(=O)[C@H](CC(=O)O)NC(=O)[C@H](C)NC(=O)[C@H](CC(C)C)NC(=O)[C@H](CCCNC(=N)N)NC(=O)[C@H](CCC(N)=O)NC(=O)[C@@H](NC(=O)[C@H](C)NC(=O)[C@@H]1CSSC[C@H](NC(=O)[C@@H](N)CCCCNC(=O)CC[C@H](NC(=O)CC[C@H](NC(=O)CCCCCCCCCCCCCCCCCCC(=O)O)C(=O)O)C(=O)O)C(=O)N[C@@H](CC(N)=O)C(=O)N[C@@H]([C@@H](C)O)C(=O)N[C@@H](C)C(=O)N[C@@H]([C@@H](C)O)C(=O)N1)[C@@H](C)O)C(=O)N1CCC[C@H]1C(=O)N[C@@H](CO)C(=O)N[C@@H](CO)C(=O)N[C@H](C(=O)N[C@@H](CC(N)=O)C(=O)N[C@H](C(=O)NCC(=O)N[C@@H](CO)C(=O)N[C@@H](CC(=O)O)C(=O)N[C@H](C(=O)N[C@@H](Cc1ccc(O)cc1)C(N)=O)[C@@H](C)O)C(C)C)[C@@H](C)O
notes: also called compound 2
B5: N^ε1-[(4S)-4-carboxy-4-[[(4S)-4-carboxy-4-(19-carboxynonadecanoylamino)butanoyl]amino]butanoyl]-[Asp14,Arg17,Pro22,Pro26,Asp35]-h-amylin (peptide)
peptide: K([γGlu-γGlu-C20 diacid])CNTATCATQRLADFLRHSSNPFGAPLSSTNVGSDTY-NH2
modifications: disulfide 2-7; N-terminus assumed
SMILES: CC(C)C[C@H](NC(=O)[C@H](CCCNC(=N)N)NC(=O)[C@H](CCC(N)=O)NC(=O)[C@@H](NC(=O)[C@H](C)NC(=O)[C@@H]1CSSC[C@H](NC(=O)[C@@H](N)CCCCNC(=O)CC[C@H](NC(=O)CC[C@H](NC(=O)CCCCCCCCCCCCCCCCCCC(=O)O)C(=O)O)C(=O)O)C(=O)N[C@@H](CC(N)=O)C(=O)N[C@@H]([C@@H](C)O)C(=O)N[C@@H](C)C(=O)N[C@@H]([C@@H](C)O)C(=O)N1)[C@@H](C)O)C(=O)N[C@@H](C)C(=O)N[C@@H](CC(=O)O)C(=O)N[C@@H](Cc1ccccc1)C(=O)N[C@@H](CC(C)C)C(=O)N[C@@H](CCCNC(=N)N)C(=O)N[C@@H](Cc1c[nH]cn1)C(=O)N[C@@H](CO)C(=O)N[C@@H](CO)C(=O)N[C@@H](CC(N)=O)C(=O)N1CCC[C@H]1C(=O)N[C@@H](Cc1ccccc1)C(=O)NCC(=O)N[C@@H](C)C(=O)N1CCC[C@H]1C(=O)N[C@@H](CC(C)C)C(=O)N[C@@H](CO)C(=O)N[C@@H](CO)C(=O)N[C@H](C(=O)N[C@@H](CC(N)=O)C(=O)N[C@H](C(=O)NCC(=O)N[C@@H](CO)C(=O)N[C@@H](CC(=O)O)C(=O)N[C@H](C(=O)N[C@@H](Cc1ccc(O)cc1)C(N)=O)[C@@H](C)O)C(C)C)[C@@H](C)O
notes: also called compound 3
B6: N^ε1-[(4S)-4-carboxy-4-[[(4S)-4-carboxy-4-(19-carboxynonadecanoylamino)butanoyl]amino]butanoyl]-[Asp14,Arg17,Pro21,Pro26,Asp35]-h-amylin (peptide)
peptide: K([γGlu-γGlu-C20 diacid])CNTATCATQRLADFLRHSSPNFGAPLSSTNVGSDTY-NH2
modifications: disulfide 2-7; N-terminus assumed
SMILES: CC(C)C[C@H](NC(=O)[C@H](CCCNC(=N)N)NC(=O)[C@H](CCC(N)=O)NC(=O)[C@@H](NC(=O)[C@H](C)NC(=O)[C@@H]1CSSC[C@H](NC(=O)[C@@H](N)CCCCNC(=O)CC[C@H](NC(=O)CC[C@H](NC(=O)CCCCCCCCCCCCCCCCCCC(=O)O)C(=O)O)C(=O)O)C(=O)N[C@@H](CC(N)=O)C(=O)N[C@@H]([C@@H](C)O)C(=O)N[C@@H](C)C(=O)N[C@@H]([C@@H](C)O)C(=O)N1)[C@@H](C)O)C(=O)N[C@@H](C)C(=O)N[C@@H](CC(=O)O)C(=O)N[C@@H](Cc1ccccc1)C(=O)N[C@@H](CC(C)C)C(=O)N[C@@H](CCCNC(=N)N)C(=O)N[C@@H](Cc1c[nH]cn1)C(=O)N[C@@H](CO)C(=O)N[C@@H](CO)C(=O)N1CCC[C@H]1C(=O)N[C@@H](CC(N)=O)C(=O)N[C@@H](Cc1ccccc1)C(=O)NCC(=O)N[C@@H](C)C(=O)N1CCC[C@H]1C(=O)N[C@@H](CC(C)C)C(=O)N[C@@H](CO)C(=O)N[C@@H](CO)C(=O)N[C@H](C(=O)N[C@@H](CC(N)=O)C(=O)N[C@H](C(=O)NCC(=O)N[C@@H](CO)C(=O)N[C@@H](CC(=O)O)C(=O)N[C@H](C(=O)N[C@@H](Cc1ccc(O)cc1)C(N)=O)[C@@H](C)O)C(C)C)[C@@H](C)O
notes: also called compound 1

For this assay, the target named is T1, human amylin receptor (amylin 3(a) …). The experiment in a line: SPA displacement of 125I-rat amylin, hAmylin 3(a) receptor membranes. In short, it runs like this:
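Cell membranes were prepared by homogenisation in Na-HEPES/EDTA buffer, pH 7.4, and stored at −80° C. They were then coupled to SPA beads at 35 ng/μL final and exposed to compounds in assay buffer containing CaCl2, MgCl₂, OA and Tween20. After 120 min at 25° C, plates were counted and IC₅₀ derived.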
On the technique in general: In a radioligand displacement assay an active substance lowers the binding of a labelled ligand.
What is called IC50 is the concentration that gives 50% inhibition. On to B1, for which the IC50 amounted to 0.169 nM. As for B2, the IC50 was found to be 0.697 nM.

For B3, the concentration for half-maximal inhibition (IC50) was 0.833 nM. The same measure for B4: 0.411 nM. Under B5 stands 1.13 nM; under B6, 1.18 nM.
